US20170224836A1 (Novartis, published 2017)
Like-named read-outs stand apart in the source and are kept apart here.

Tests used:
hCDH6aa54-615 APPavi [1] = molecular target: T1, hCDH6aa54-615 APPavi (human, UniProt P55285 54-615); test: SPR binning
T1 sequence: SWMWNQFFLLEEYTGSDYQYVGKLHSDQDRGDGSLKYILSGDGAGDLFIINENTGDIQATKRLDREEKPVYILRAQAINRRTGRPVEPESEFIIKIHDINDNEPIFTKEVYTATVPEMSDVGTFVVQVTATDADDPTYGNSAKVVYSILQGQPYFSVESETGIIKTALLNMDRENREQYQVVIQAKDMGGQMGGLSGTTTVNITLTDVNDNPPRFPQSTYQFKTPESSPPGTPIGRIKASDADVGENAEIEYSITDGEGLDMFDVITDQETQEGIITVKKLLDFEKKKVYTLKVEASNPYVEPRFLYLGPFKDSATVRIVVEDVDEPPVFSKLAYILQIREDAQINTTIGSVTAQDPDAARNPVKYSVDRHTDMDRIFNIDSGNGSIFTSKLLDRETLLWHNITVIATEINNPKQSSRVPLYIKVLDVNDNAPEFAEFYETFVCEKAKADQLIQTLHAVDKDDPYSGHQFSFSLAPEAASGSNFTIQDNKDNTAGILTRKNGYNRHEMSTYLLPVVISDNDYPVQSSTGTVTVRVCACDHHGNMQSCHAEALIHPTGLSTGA

hCDH6aa54-615 APPavi [2] = molecular target: T1, hCDH6aa54-615 APPavi; test: SPR binning; remark: listed apart in the source
hCDH6aa54-615 APPavi [3] = molecular target: T1, hCDH6aa54-615 APPavi; test: SPR binning; remark: listed apart in the source
hCDH6aa54-615 APPavi [4] = molecular target: T1, hCDH6aa54-615 APPavi; test: SPR binning; remark: listed apart in the source
hCDH6aa54-615 APPavi [5] = molecular target: T1, hCDH6aa54-615 APPavi; test: SPR binning; remark: listed apart in the source
hCDH6aa54-615 APPavi [6] = molecular target: T1, hCDH6aa54-615 APPavi; test: SPR binning; remark: listed apart in the source
hCDH6aa54-615 APPavi [7] = molecular target: T1, hCDH6aa54-615 APPavi; test: SPR binning; remark: listed apart in the source
CDH6 wt = molecular target: T2, CDH6 wt (human, UniProt P55285 54-615); test: ELISA on coated CDH6-wt
T2 sequence: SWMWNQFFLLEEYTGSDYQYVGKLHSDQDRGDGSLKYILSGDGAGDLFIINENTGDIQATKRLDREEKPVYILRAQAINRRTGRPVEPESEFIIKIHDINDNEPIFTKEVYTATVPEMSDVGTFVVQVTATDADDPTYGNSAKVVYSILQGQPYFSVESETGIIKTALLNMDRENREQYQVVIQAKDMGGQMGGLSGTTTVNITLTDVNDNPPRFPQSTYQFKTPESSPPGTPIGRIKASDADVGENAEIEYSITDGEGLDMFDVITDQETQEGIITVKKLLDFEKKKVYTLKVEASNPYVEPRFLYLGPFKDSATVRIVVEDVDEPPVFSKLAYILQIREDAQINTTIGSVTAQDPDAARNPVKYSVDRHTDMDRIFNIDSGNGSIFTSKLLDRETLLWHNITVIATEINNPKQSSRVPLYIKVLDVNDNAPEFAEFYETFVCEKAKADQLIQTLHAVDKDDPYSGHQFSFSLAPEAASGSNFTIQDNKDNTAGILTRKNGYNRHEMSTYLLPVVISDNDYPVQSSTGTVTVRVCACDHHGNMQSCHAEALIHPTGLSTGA

response of secondary antibody on primary antibody-CDH6 complex (hCDH6aa54-615 APPavi [1]): 8.84
response of secondary antibody on primary antibody-CDH6 complex (hCDH6aa54-615 APPavi [2]): -2.17
response of secondary antibody on primary antibody-CDH6 complex (hCDH6aa54-615 APPavi [3]): 21.9
response of secondary antibody on primary antibody-CDH6 complex (hCDH6aa54-615 APPavi [4]): 10.6
response of secondary antibody on primary antibody-CDH6 complex (hCDH6aa54-615 APPavi [5]): 32.7
response of secondary antibody on primary antibody-CDH6 complex (hCDH6aa54-615 APPavi [6]): 15
response of secondary antibody on primary antibody-CDH6 complex (hCDH6aa54-615 APPavi [7]): -3.56
EC50 (read off the curve) (CDH6 wt): ~200 nM
B1: NOV0710 (antibody, human IgG1, kappa, V domains shown)
VH: QVQLLESGGGLVQPGGSLRLSCAASGFTFSSYAMSWVRQAPGKGLEWVSVIRSSGSSTYYADSVKGRFTISRDNSKNTLYLQMNSLRAEDTAVYYCARGGGYFDYWGQGTLVTVSS
VL: DIQMTQSPSSLSASVGDRVTITCRASQSISLWLNWYQQKPGKAPKLLIYAASTLQSGVPSRFSGSGSGTDFTLTISSLQPEDFATYYCQQYYTSPYTFGQGTKVEIKR
